Article PMC9061753, “Mre11-Rad50 oligomerization promotes DNA double-strand break repair” (Nature Communications, 2022)

How the values were obtained:
Mre11-Rad50 (MRwt) [1] = target: T1, Mre11-Rad50 (MRwt) (S. cerevisiae, UniProt P32829;P12753 1-692;1-1312); assay: EMSA; ATPgS, 5 mM Mg2+, 30 mM NaCl; mean of the 3 visible of 4 replicates (20.5, 22.96, 22.55); apparent; Oligo EMSA: 25 mM Tris acetate pH 7.5, 1 mM DTT, 0.25 mg/ml BSA, 5 mM Mg acetate, 1 mM ATPgS, 30 mM NaCl, 30 C 15 min, 100 nM bp DNA; plasmid EMSA: 80 mM KCl, plus 1 mM MnCl2, 30 C 1 h; mass photometry 25 mM KCl; conditions: protein: recombinant; tags: Mre11-6xHis; Rad50 untagged; chain copies: 2;2; label: 3'-32P on strand 1 (terminal transferase); blunt before 3' labeling
T1 sequence (P32829 whole entry, one chain of several): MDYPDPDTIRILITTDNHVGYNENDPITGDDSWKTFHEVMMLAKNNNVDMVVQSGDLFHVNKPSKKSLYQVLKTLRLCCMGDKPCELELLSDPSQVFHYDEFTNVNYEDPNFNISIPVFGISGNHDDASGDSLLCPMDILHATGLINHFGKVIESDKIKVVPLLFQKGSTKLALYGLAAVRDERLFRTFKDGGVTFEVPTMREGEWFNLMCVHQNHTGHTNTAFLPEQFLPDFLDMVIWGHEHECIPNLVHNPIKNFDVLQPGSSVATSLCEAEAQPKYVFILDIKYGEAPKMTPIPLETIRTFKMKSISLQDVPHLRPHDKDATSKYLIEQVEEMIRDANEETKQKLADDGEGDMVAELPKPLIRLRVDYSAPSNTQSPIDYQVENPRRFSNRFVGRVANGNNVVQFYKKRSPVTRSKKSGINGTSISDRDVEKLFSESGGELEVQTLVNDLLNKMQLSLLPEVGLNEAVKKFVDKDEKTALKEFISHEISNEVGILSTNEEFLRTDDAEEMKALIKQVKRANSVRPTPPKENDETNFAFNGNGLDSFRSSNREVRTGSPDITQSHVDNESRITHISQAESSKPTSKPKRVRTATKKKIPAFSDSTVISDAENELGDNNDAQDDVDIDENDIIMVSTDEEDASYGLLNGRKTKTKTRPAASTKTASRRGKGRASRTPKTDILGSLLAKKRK

Mre11-Rad50 (MRwt) [2] = target: T1, Mre11-Rad50 (MRwt); assay: mass photometry; 25 mM KCl; Oligo EMSA: 25 mM Tris acetate pH 7.5, 1 mM DTT, 0.25 mg/ml BSA, 5 mM Mg acetate, 1 mM ATPgS, 30 mM NaCl, 30 C 15 min, 100 nM bp DNA; plasmid EMSA: 80 mM KCl, plus 1 mM MnCl2, 30 C 1 h; mass photometry 25 mM KCl; conditions: protein: recombinant; tags: Mre11-6xHis; Rad50 untagged; chain copies: 2;2; bottom as printed is a circular permutation of the complement of top (possible printing error); stated 73 bp
MRho = MRho (S. cerevisiae, UniProt P32829;P12753 1-692;1-1312, N121A;D124N;Rad50:); assay: mass photometry; 25 mM KCl; two dimers per DNA detected; Oligo EMSA: 25 mM Tris acetate pH 7.5, 1 mM DTT, 0.25 mg/ml BSA, 5 mM Mg acetate, 1 mM ATPgS, 30 mM NaCl, 30 C 15 min, 100 nM bp DNA; plasmid EMSA: 80 mM KCl, plus 1 mM MnCl2, 30 C 1 h; mass photometry 25 mM KCl; conditions: protein: recombinant; tags: Mre11-6xHis; Rad50 untagged; chain copies: 2;2; bottom as printed is a circular permutation of the complement of top (possible printing error); stated 73 bp
MRho, sequence (P32829 whole entry, stated change not applied, one chain of several): as the sequence (P32829 whole entry, one chain of several) above

Mre11-Rad50 (MRwt) [3] = target: T1, Mre11-Rad50 (MRwt); assay: EMSA; ATPgS, 5 mM Mg2+, 30 mM NaCl; mean of the 3 visible of 4 replicates (14.03, 13.92, 12.72); apparent; Oligo EMSA: 25 mM Tris acetate pH 7.5, 1 mM DTT, 0.25 mg/ml BSA, 5 mM Mg acetate, 1 mM ATPgS, 30 mM NaCl, 30 C 15 min, 100 nM bp DNA; plasmid EMSA: 80 mM KCl, plus 1 mM MnCl2, 30 C 1 h; mass photometry 25 mM KCl; conditions: protein: recombinant; tags: Mre11-6xHis; Rad50 untagged; chain copies: 2;2; label: 3'-32P on strand 1 (terminal transferase); blunt before 3' labeling
[4] = target: the molecule itself; assay: negative staining TEM; purified complexes without DNA; 25 mM Tris acetate pH 7.5, 1 mM DTT, 120 mM KCl; 4 °C, or 30 °C for 30 min with 5 mM Mg2+, 1 mM Mn2+, 1 mM ATPγS; oligomers stable at 150 mM KCl or NaCl; step: M2R2 to (M2R2)n
[5] = target: the molecule itself; assay: negative staining TEM; proteins on linear or circular plasmid DNA, 30 °C 30 min, Mg2+, Mn2+, ATPγS (or ATP), 30-50 mM KCl; 50-100 nM MR; oligomerization on DNA

B1: 20 bp EMSA (PC216_20 nt) (dsDNA)
DNA 1: CGTACTCCACCTCATGCATC
DNA 2: GATGCATGAGGTGGAGTACG
modifications: biotin position marked on a T of strand 2 in table
Kd (Mre11-Rad50 (MRwt) [1]): ~22 nM

B2: 73 bp mass photometry (dsDNA)
DNA 1: GACCACCCTTTTTGATATAATATACCTATATCAATGGGCTCCCACGCAATTCGGCAGATACGTTCTGAGGGAA
DNA 2: GCCCATTGATATAGGTATATTATATCAAAAAGGGTGGTCTTCCCTCAGAACGTATCTGCCGAATTGCGTGGGA
binding result (Mre11-Rad50 (MRwt) [2]): binds | binding result (MRho): binds

B3: 31 bp EMSA (X12-3SC) (dsDNA)
DNA 1: TTGCTAGGACATGCTGTCTAGAGACTATCGC
DNA 2: GCGATAGTCTCTAGACAGCATGTCCTAGCAA
Kd (Mre11-Rad50 (MRwt) [3]): ~13.6 nM

B4: S. cerevisiae Rad50, wild type, untagged (co-expressed subunit) (natural protein, UniProt P12753 1-1312, looked up)
chain: MSAIYKLSIQGIRSFDSNDRETIEFGKPLTLIVGMNGSGKTTIIECLKYATTGDLPPNSKGGVFIHDPKITGEKDIRAQVKLAFTSANGLNMIVTRNIQLLMKKTTTTFKTLEGQLVAINNSGDRSTLSTRSLELDAQVPLYLGVPKAILEYVIFCHQEDSLWPLSEPSNLKKKFDEIFQAMKFTKALDNLKSIKKDMSVDIKLLKQSVEHLKLDKDRSKAMKLNIHQLQTKIDQYNEEVSEIESQLNEITEKSDKLFKSNQDFQKILSKVENLKNTKLSISDQVKRLSNSIDILDLSKPDLQNLLANFSKVLMDKNNQLRDLETDISSLKDRQSSLQSLSNSLIRRQGELEAGKETYEKNRNHLSSLKEAFQHKFQGLSNIENSDMAQVNHEMSQFKAFISQDLTDTIDQFAKDIQLKETNLSDLIKSITVDSQNLEYNKKDRSKLIHDSEELAEKLKSFKSLSTQDSLNHELENLKTYKEKLQSWESENIIPKLNQKIEEKNNEMIILENQIEKFQDRIMKTNQQADLYAKLGLIKKSINTKLDELQKITEKLQNDSRIRQVFPLTQEFQRADLEMDFQKLFINMQKNIAINNKKMHELDRRYTNALYNLNTIEKDLQDNQKSKEKVIQLLSENLPEDCTIDEYNDVLEETELSYKTALENLKMHQTTLEFNRKALEIAERDSCCYLCSRKFENESFKSKLLQELKTKTDANFEKTLKDTVQNEKEYLHSLRLLEKHIITLNSINEKIDNSQKCLEKAKEETKTSKSKLDELEVDSTKLKDEKELAESEIRPLIEKFTYLEKELKDLENSSKTISEELSIYNTSEDGIQTVDELRDQQRKMNDSLRELRKTISDLQMEKDEKVRENSRMINLIKEKELTVSEIESSLTQKQNIDDSIRSKRENINDIDSRVKELEARIISLKNKKDEAQSVLDKVKNERDIQVRNKQKTVADINRLIDRFQTIYNEVVDFEAKGFDELQTTIKELELNKAQMLELKEQLDLKSNEVNEEKRKLADSNNEEKNLKQNLELIELKSQLQHIESEISRLDVQNAEAERDKYQEESLRLRTRFEKLSSENAGKLGEMKQLQNQIDSLTHQLRTDYKDIEKNYHKEWVELQTRSFVTDDIDVYSKALDSAIMKYHGLKMQDINRIIDELWKRTYSGTDIDTIKIRSDEVSSTVKGKSYNYRVVMYKQDVELDMRGRCSAGQKVLASIIIRLALSETFGANCGVIALDEPTTNLDEENIESLAKSLHNIINMRRHQKNFQLIVITHDEKFLGHMNAAAFTDHFFKVKRDDRQKSQIEWVDINRVTY
notes: Rad50, S. cerevisiae, untagged; also called Rad50^wt; untagged Rad50; source: Sf9, co-expressed with Mre11-6xHis (and FLAG-Xrs2)
binding result [4]: binds

B5: S. cerevisiae Rad50, wild type, expressed and purified alone (natural protein, UniProt P12753 1-1312, looked up)
chain: MSAIYKLSIQGIRSFDSNDRETIEFGKPLTLIVGMNGSGKTTIIECLKYATTGDLPPNSKGGVFIHDPKITGEKDIRAQVKLAFTSANGLNMIVTRNIQLLMKKTTTTFKTLEGQLVAINNSGDRSTLSTRSLELDAQVPLYLGVPKAILEYVIFCHQEDSLWPLSEPSNLKKKFDEIFQAMKFTKALDNLKSIKKDMSVDIKLLKQSVEHLKLDKDRSKAMKLNIHQLQTKIDQYNEEVSEIESQLNEITEKSDKLFKSNQDFQKILSKVENLKNTKLSISDQVKRLSNSIDILDLSKPDLQNLLANFSKVLMDKNNQLRDLETDISSLKDRQSSLQSLSNSLIRRQGELEAGKETYEKNRNHLSSLKEAFQHKFQGLSNIENSDMAQVNHEMSQFKAFISQDLTDTIDQFAKDIQLKETNLSDLIKSITVDSQNLEYNKKDRSKLIHDSEELAEKLKSFKSLSTQDSLNHELENLKTYKEKLQSWESENIIPKLNQKIEEKNNEMIILENQIEKFQDRIMKTNQQADLYAKLGLIKKSINTKLDELQKITEKLQNDSRIRQVFPLTQEFQRADLEMDFQKLFINMQKNIAINNKKMHELDRRYTNALYNLNTIEKDLQDNQKSKEKVIQLLSENLPEDCTIDEYNDVLEETELSYKTALENLKMHQTTLEFNRKALEIAERDSCCYLCSRKFENESFKSKLLQELKTKTDANFEKTLKDTVQNEKEYLHSLRLLEKHIITLNSINEKIDNSQKCLEKAKEETKTSKSKLDELEVDSTKLKDEKELAESEIRPLIEKFTYLEKELKDLENSSKTISEELSIYNTSEDGIQTVDELRDQQRKMNDSLRELRKTISDLQMEKDEKVRENSRMINLIKEKELTVSEIESSLTQKQNIDDSIRSKRENINDIDSRVKELEARIISLKNKKDEAQSVLDKVKNERDIQVRNKQKTVADINRLIDRFQTIYNEVVDFEAKGFDELQTTIKELELNKAQMLELKEQLDLKSNEVNEEKRKLADSNNEEKNLKQNLELIELKSQLQHIESEISRLDVQNAEAERDKYQEESLRLRTRFEKLSSENAGKLGEMKQLQNQIDSLTHQLRTDYKDIEKNYHKEWVELQTRSFVTDDIDVYSKALDSAIMKYHGLKMQDINRIIDELWKRTYSGTDIDTIKIRSDEVSSTVKGKSYNYRVVMYKQDVELDMRGRCSAGQKVLASIIIRLALSETFGANCGVIALDEPTTNLDEENIESLAKSLHNIINMRRHQKNFQLIVITHDEKFLGHMNAAAFTDHFFKVKRDDRQKSQIEWVDINRVTY
notes: Rad50, S. cerevisiae; also called Rad50^wt
binding result [5]: binds

B6: S. cerevisiae Rad50^N121A/D124N, expressed and purified alone (natural protein, UniProt P12753 1-1312, looked up)
chain: MSAIYKLSIQGIRSFDSNDRETIEFGKPLTLIVGMNGSGKTTIIECLKYATTGDLPPNSKGGVFIHDPKITGEKDIRAQVKLAFTSANGLNMIVTRNIQLLMKKTTTTFKTLEGQLVAINASGNRSTLSTRSLELDAQVPLYLGVPKAILEYVIFCHQEDSLWPLSEPSNLKKKFDEIFQAMKFTKALDNLKSIKKDMSVDIKLLKQSVEHLKLDKDRSKAMKLNIHQLQTKIDQYNEEVSEIESQLNEITEKSDKLFKSNQDFQKILSKVENLKNTKLSISDQVKRLSNSIDILDLSKPDLQNLLANFSKVLMDKNNQLRDLETDISSLKDRQSSLQSLSNSLIRRQGELEAGKETYEKNRNHLSSLKEAFQHKFQGLSNIENSDMAQVNHEMSQFKAFISQDLTDTIDQFAKDIQLKETNLSDLIKSITVDSQNLEYNKKDRSKLIHDSEELAEKLKSFKSLSTQDSLNHELENLKTYKEKLQSWESENIIPKLNQKIEEKNNEMIILENQIEKFQDRIMKTNQQADLYAKLGLIKKSINTKLDELQKITEKLQNDSRIRQVFPLTQEFQRADLEMDFQKLFINMQKNIAINNKKMHELDRRYTNALYNLNTIEKDLQDNQKSKEKVIQLLSENLPEDCTIDEYNDVLEETELSYKTALENLKMHQTTLEFNRKALEIAERDSCCYLCSRKFENESFKSKLLQELKTKTDANFEKTLKDTVQNEKEYLHSLRLLEKHIITLNSINEKIDNSQKCLEKAKEETKTSKSKLDELEVDSTKLKDEKELAESEIRPLIEKFTYLEKELKDLENSSKTISEELSIYNTSEDGIQTVDELRDQQRKMNDSLRELRKTISDLQMEKDEKVRENSRMINLIKEKELTVSEIESSLTQKQNIDDSIRSKRENINDIDSRVKELEARIISLKNKKDEAQSVLDKVKNERDIQVRNKQKTVADINRLIDRFQTIYNEVVDFEAKGFDELQTTIKELELNKAQMLELKEQLDLKSNEVNEEKRKLADSNNEEKNLKQNLELIELKSQLQHIESEISRLDVQNAEAERDKYQEESLRLRTRFEKLSSENAGKLGEMKQLQNQIDSLTHQLRTDYKDIEKNYHKEWVELQTRSFVTDDIDVYSKALDSAIMKYHGLKMQDINRIIDELWKRTYSGTDIDTIKIRSDEVSSTVKGKSYNYRVVMYKQDVELDMRGRCSAGQKVLASIIIRLALSETFGANCGVIALDEPTTNLDEENIESLAKSLHNIINMRRHQKNFQLIVITHDEKFLGHMNAAAFTDHFFKVKRDDRQKSQIEWVDINRVTY
notes: Rad50, S. cerevisiae; also called Rad50^ho
binding result [5]: binds
